experiment: yeast display, Sf9 membrane polyspecificity reagent, FACS + sequencing; frameworks hold sequencing errors
Outline: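 Synthetic nanobody libraries on Saccharomyces cerevisiae BJ5465 were galactose-induced for 36–48 hours, stained 1 hour at 4 °C with 10% biotinylated, detergent-solubilized Sf9 membrane reagent and enriched on streptavidin microbeads. FACS then separated cells into low and high (top ~1%) gates by anti-HA (expression) and streptavidin (reagent binding) fluorescence. Genes were colony-PCR amplified, MiSeq 2 × 250 sequenced and CDR-length filtered. A clone's polyreactivity label is that of its gate of origin.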

Q: For “QVQLVESGGGLVQAGGSLRLSCAASGSTFRHYAMGWYRQAPGKERELVAAITRRTVSTYYADSVKGRFTISRDNAKNSVYLQMNSLKPEHTAVYYCAADYWYSGYDYWGQGTQVTVSS”, which “polyreactivity (PSR sort gate)” value is on record?
A: The value was “low polyreactivity”.

Q: With “QVQLVESGGGLVQAGGSLRLSSAASGRTFAGYTMGWYRQAPGKERELVAAITKSGGSTYYADSVKGRFTISRDNAKNTVYLQMNSLKPEDTAFYYCAARYIPSRYGTGGGYYSWGQGTQVTVSS” as the sequence, how does the “polyreactivity (PSR sort gate)” value read?
A: Its value is “high polyreactivity”.

Q: For “QVQLVESGGGLVQAGGSLRLSCAASGSTFWEKAIGWSRQAPGKEMELAAAISWGGASTYYADSVKGRFTISRDNAKNTVYLQMNSLKPEDTAVYYCAADQTSTQFLSSYGGYNYWGQGTQVTVSS”, which “polyreactivity (PSR sort gate)” value is on record?
A: The value was “low polyreactivity”.

Q: Which “polyreactivity (PSR sort gate)” value does the source give for “QVQLVESGGGLVQAGGSLRLSCAASGRTYVYNAMGLYRHAPGKERELVAGITNGGSTNYADSVKGRFTISRDNAKNTVYLQMNSLKPEDTAVYYCNRDVKVLYASSHSPYGYDHWGQGTQVTVSS” here?
A: Its value is “low polyreactivity”.

Q: For “QVQLVESGGGLVQAGGSLRLSCAASGSTFPYNARGWYRQAPGKERELVAAINSNGGSTYYADSVKGRFTISRDNAKNTVYLQMNSLKPEDTAVYYCAAGFYYRPFYGSSHSYGYWGQGTQVTVSS”, which “polyreactivity (PSR sort gate)” value is on record?
A: Its value is “low polyreactivity”.

Q: For “QVQLVESGGGLVQAGGSLRLSCAASGSTFPVNTMGWYRQAPGKERELVAAISSDDNTNYADSVKGRFTISRDNAKNTVYLQMNSLKPEDTAVYYCAVKGHPAYVEVPPRYAWEFDYWGQGTQVTVSS”, which “polyreactivity (PSR sort gate)” value is on record?
A: Its value is “low polyreactivity”.

Q: With “QVQLQESAGVLVQAGGSLRLRCSASGYISCHASMGWYRQAPGKEGELAASITKGSSTNYADSVKGRFTIRDNAINTVFLQMNSLKPEDTAVCYCAVTYPYWGDYTYWGQGTQVTVSS” as the sequence, how does the “polyreactivity (PSR sort gate)” value read?
A: The value was “low polyreactivity”.

Q: Which “polyreactivity (PSR sort gate)” value does the source give for “QVQLVESGGGLVQAGGSLRLSCAASGRTFFQYAMGWYRQPPGKARELVAAIRWSDSTYYADSVKGRFTISRDNAKNTVYLQMNSLKPADTAVYYCAAPRVSQYSTKKYDYWGQGTQVTVSS” here?
A: The value was “low polyreactivity”.

Q: For “QVQLVESGGGLVQAGGSLRLSCAASGNTFYVNVMGWYRQAPGKEREFVAAISTRGVSTSYADSVKGRVTISRDNAKNTVYLQMNSLKPEDTAVYYCAASFRRPQPKGSTYGYWGQGTQVTVSS”, which “polyreactivity (PSR sort gate)” value is on record?
A: The value was “high polyreactivity”.

Q: With “QVQLVESGGGLVQAGGSLRLSCAASGITFYFNAMGWYRQAPGKERELVAANTSGGGSTYYADSVKGRFTISRDNAKNTVYLQRNSLKPEDTAVYYCAAEWSYGGMDYWGQGTQVTVSS” as the sequence, how does the “polyreactivity (PSR sort gate)” value read?
A: Its value is “low polyreactivity”.

Q: For “QVQLVESGGGLVQAGGSLRLSCAASGSIFTDYALAWYRQAPGKERELVATITWSDATTYYTDSVKGRFTISRDNAKNTVYLQMNSLKPEDTAVYYCARRSRYSKGYDYWGQGTQVTVSS”, which “polyreactivity (PSR sort gate)” value is on record?
A: Its value is “low polyreactivity”.

Q: Which “polyreactivity (PSR sort gate)” value does the source give for “QVQLVESGGGLVQAGGSLRLSCAASGSIFYYYAMGWYRQAPGKERELVAAITRSGSSTYYADSVKGRFTISRDNAKNTVYLQMNSLKPEDTAVYYCAAKSKRGSRYDSWGQGTQVTVSS” here?
A: The value was “high polyreactivity”.

Q: For “QVQLEESGGGLVQAGVSLRLSCAASGRIFLSNAMGWYRQAPGKEREFVAAISWRGGSTYYADSVKGRFTISRDNAKNTVYLQMNSLKPEDTAVYYCAVDVRYYYGRSYDYWGQGTQVTVSS”, which “polyreactivity (PSR sort gate)” value is on record?
A: Its value is “high polyreactivity”.

Q: For “QLQLVESGGGLVQAGGSLRLSCAASGRIFSRYAMGWYRQATGKERELVAAINKSGGSTYYADSVKGRFTFSRDNAKNTVYLQMNSLKPEDTAVYYCNAVYYWYKGDYWGQGTLVTVSS”, which “polyreactivity (PSR sort gate)” value is on record?
A: The value was “high polyreactivity”.

Q: Which “polyreactivity (PSR sort gate)” value does the source give for “QVQLVESGGRLVQAGGSLRLSCDASGRTSRRNAMGWYRQAPGKERELVAGITWRGGSTYYADSVKGRFTISRDNAKNTVYLQMNSLKPEDPEVYYCAAYTYPHEYDYWGQGTQVTVSS” here?
A: The value was “low polyreactivity”.

Q: For “QVQLVESGGGLVQAGGSLRLSCAASGFIFYKNTMGWYRQAPGKERELVAAITDGDHTNYADSVKGRFTISRDYAKNTVYLQMNSLKPEDTAVYYCAADYAWNYAFGYWGQGTQVTVSS”, which “polyreactivity (PSR sort gate)” value is on record?
A: Its value is “low polyreactivity”.

Q: With “QVQHVESGAGLVQAGGSLRLSCAASGNTFTWYTRGWSRQAPGKERELVAVITSDGATYYADSVKGRFTISRDNAKNTVYLQMNSLKPEDTAVYYCNALSAEWYPEEDYWGQGTQVTVSS” as the sequence, how does the “polyreactivity (PSR sort gate)” value read?
A: The value was “low polyreactivity”.

Q: Which “polyreactivity (PSR sort gate)” value does the source give for “QVQLVESWGGLDQAGGSLRLSCAASGRNLYWNTMGWYRQPPGKETQLVASITQNVGSTYYADSVKGRFTISRDFAKNTVYLQMNSLKPEDTAVYDCAAKRLYWLRYGYWGQGTQDTVSS” here?
A: Its value is “low polyreactivity”.

Q: For “QVQLVESGGGLVQAGGSLRLSCAASGITFWGYAMGWYRQAPGKERELVAAISKTGGSTYYADSVKGRFTISRDNAKNTVYLQMNSLKPEDTAVYYCNTVTANGDFGYWGQGTQVTVSS”, which “polyreactivity (PSR sort gate)” value is on record?
A: The value was “low polyreactivity”.

Q: With “QVQHVESGGGLVQAGGSLRLSCAASGSTFKHNAMGWSRQAPGKERELVAGISWGGSSTYYADSVKGRFTISRDKAKNTVYLQMNSLKPEDTAVYYCAKGGYRRYGYDYWGQGTQVTVSS” as the sequence, how does the “polyreactivity (PSR sort gate)” value read?
A: The value was “low polyreactivity”.

Q: Which “polyreactivity (PSR sort gate)” value does the source give for “QVQLVESGGCLVQAGGSLRLSCAASGSTIYAMGWYRQAPGKERELVAGINRSGTRTYYADSVKGRFTISRDNAKNTVYLQMNSLKPEDTAVYYCAALVYRPTYGYIFDYWGQGTQVTVSS” here?
A: The value was “high polyreactivity”.

Q: For “QVQLVESGGGLVQAGGSLRLSCAASGGTFYAYAMGWYRQAPGKERELVAAITSGGRTYYADSVKGRFTISRDNAKNTVYLQMNSLKPEDTAVYYCAAKYFRGVKRDYWGQGTQVTVSS”, which “polyreactivity (PSR sort gate)” value is on record?
A: The value was “high polyreactivity”.

Q: For “QVQLVESGGGLVQAGGSLRLSCAASGRIFKRNAMGWYRQAPGKERELVAAISYSGGSTYYADSVKGRFTISRDNAKNTVYLQMNSLKPEDTAVYYCAAKYRPRGKSSWPYRRYDYWGQGTQVTVSS”, which “polyreactivity (PSR sort gate)” value is on record?
A: Its value is “high polyreactivity”.

Q: For “QVQLVESGGGLVQAGGSLRLSCAASGSTSYPYAMGWYIQAPGQERELVATINYSGARTYYADSVKGRFTISRDNAKNTVYFQMNSLKPEDTAVYYCAATVYWRLEHDYWGQGTQVTVSS”, which “polyreactivity (PSR sort gate)” value is on record?
A: Its value is “low polyreactivity”.

Q: With “QVQLVDSGGGLVQAGGSLRLSCAASGRTFSGNAMGWYRQAPGKERELVAAIRGGGSTYYADSVKGRFTISRDNAKNTVYLQMNSLKPEDTAVYYCAGRSQVYAPAYYRSKYDYWGQGTQVTVSS” as the sequence, how does the “polyreactivity (PSR sort gate)” value read?
A: Its value is “high polyreactivity”.

Q: Which “polyreactivity (PSR sort gate)” value does the source give for “QVHLVESGGGLVQAGGSLRLSGAASGSISGLYAMGCYRQAPGKEREFVARIRWRGDSTYYADSVKGRFTISRDNAKNTVYLQMNSLKPEDTAVYYCAAGLYLFQIWFVNEYDYWGQGTQVTVSS” here?
A: Its value is “high polyreactivity”.

Q: For “QVQLVESGGGLVQAGGSLRLSCAASGSTFAYYTMGWYRQAPGKERELVAAISRRGGSTYYADSVKGRFTISRDNAKNTVYLQMNSLKPEDTAVYYCAASFKGPGYYRYYYWGQGTQVTVSS”, which “polyreactivity (PSR sort gate)” value is on record?
A: Its value is “high polyreactivity”.

Q: For “QVQLQESGGGLVQAGGSLRLSCAASGYITYFVGMGWYRQPPGKEREFVASIADGSNTYYADSVKGRFTISRDNAKNTVYLQRNSLKPEDTAVYYCAVVDSWTYRFDYWGQGTQVTVSS”, which “polyreactivity (PSR sort gate)” value is on record?
A: The value was “high polyreactivity”.

Q: With “QVQLVESGGGLVQAGGSLRLSCAASGNIFGNNAMGWYRQAPGKERELVAAISSSGTSTYYADSVKGRFTISRDNAKNTVYFQMNSLKPEDTAVYYCNADPLPYDGYYDYDYWGQGTQVTVSS” as the sequence, how does the “polyreactivity (PSR sort gate)” value read?
A: The value was “low polyreactivity”.

Q: With “QVQLQESCGGLVQAGGSLRLSCAASGTIITARFMGWYRQAPGKERELVATITDGGNNNHAESVKGRFTISRDNAKNTVYLQMNSLKPEDAAVYYCAAGEVDNDTLLYWGQGSQVTVSS” as the sequence, how does the “polyreactivity (PSR sort gate)” value read?
A: Its value is “low polyreactivity”.

Q: With “QVQLQESGGGLVRAGGSLRLSCAASGYISTSIAIGWYRQAPGKERELVASFGAGAITNYADSVKGFTISRDNGKKTVYLQMNSLKPVDTALYYCAVYHGDRGYYSYWGQGTQVTVSS” as the sequence, how does the “polyreactivity (PSR sort gate)” value read?
A: Its value is “low polyreactivity”.

Q: With “QVQLQESGGGLVQAGGSLRLSCAASGSIFVSVTMGWYRQAPGKERELVASIGRGSTTNHADSVKGRFTISRDNAKNIVYLLMNSLKPEDTAVYYCAALESYGKYHGYWGQGTQVTVCS” as the sequence, how does the “polyreactivity (PSR sort gate)” value read?
A: Its value is “low polyreactivity”.

Q: For “QVQLVESGGGLVQAGGSLRLSCAASRRISHYYAMGWYRQAPGKERALVASIRISGGSTYYADSVKGRFTISRDYAKNTVFLQMNSLKPEDTAVYYCATLGYNWRRLYYWGQGTEVTVSS”, which “polyreactivity (PSR sort gate)” value is on record?
A: The value was “high polyreactivity”.

Q: With “QVQLVESGGGLVQAGGSLRLSCAASGFIFPANAMGWSRQAPGKERELVAAINYSGGSTYYADSVKGRFTISRDNAKNTVYLQMNSLKPEDTAVYYCNADFYVVGVTTVDLSGYDSWGQGTQVTVSS” as the sequence, how does the “polyreactivity (PSR sort gate)” value read?
A: Its value is “low polyreactivity”.

Q: With “QVQLVESGGGLVQAGGSLRLICAASGRTIWSNAMGRYRHAPGKEWEFVAGISQDGTSRYYADSVKGRFTISRDNAKNTVYLQMNSLKPEDTAVYYCAARSSFRRRSGPTPYGFDYWGQGTQVTVSS” as the sequence, how does the “polyreactivity (PSR sort gate)” value read?
A: Its value is “high polyreactivity”.

Q: Which “polyreactivity (PSR sort gate)” value does the source give for “QVQLVESVGGLVQAGGSLRLSCAASGSIISFNAMGWYRQAPRKERELVASISRNGGSSYYADSVKGRFTISRDNAKNTVYLQMNSLKPEDTAVYYCAVKVRNRRYGYWGQGTQVTVSS” here?
A: The value was “high polyreactivity”.

Q: For “QVQLVESGGGFVQAGGSLRLSCAASGRIIGYNAMAWYRQAPGKDRELVAAITTSGGSTYYADSVKGRFTISRDNAKNTVYLQMNSLKPEDTAFYYCARDSLQVFYAYASDDFWGQGTQVTVSS”, which “polyreactivity (PSR sort gate)” value is on record?
A: The value was “low polyreactivity”.

Q: With “QVQLVESGGGLVQAGGSLRLSCAASGITLTIYTMGWYRQAPGKERELVAAINWSGTRTYYADSVKGRFTISRDNAKNTVYFQMNSLKPEDTAVYYCAATTYRYPNILGYDYWGQGTQVSVSS” as the sequence, how does the “polyreactivity (PSR sort gate)” value read?
A: Its value is “high polyreactivity”.

Q: Which “polyreactivity (PSR sort gate)” value does the source give for “QVQLVESGGGLVQAGGSLRLSCAASGRTFYSYAMGWYRQAPGKERELVAAISYTGASTFYADSVKGRFTISRDNAKNTVYLQMNSLKPEDTAVYYCAGRKVRFGVDYWGQGTQVTVSS” here?
A: Its value is “high polyreactivity”.

Q: Which “polyreactivity (PSR sort gate)” value does the source give for “QVQLVESGGGLVQAGGSLRLSCAASGSNFQVYAMGWYRQAPGKERELVATIRRTGGSTYYADSVKGRFTISRDNAKNTVYLQMNSLKPEDTAVYYCAARTYGGYVLRLDYWGQGTQVTVSS” here?
A: The value was “high polyreactivity”.

Q: With “QVQLVESGGGLVQAGGSLRLSCAASGSIFSRYAMGWYRPAPGKERELVAAISRSTGSTYYADSVKGRFTISRDNAKNTVYLQMNSLKPEDTAVYYCAAKWIRWGYVSSNSRFGYWGQGTQVTVSS” as the sequence, how does the “polyreactivity (PSR sort gate)” value read?
A: The value was “high polyreactivity”.

Source: the nanobody polyreactivity screen of Harvey et al. (2022)
